“Also recorded” adds a separate entry of the source.
T1: EMR2 (Homo sapiens, UniProt Q9UHX3)
T1 construct: endogenous in cells; host or cells: human peripheral blood monocytes (from Leukopac PBMC) cultured with TGFb2 and tetanus toxoid, giving tolerogenic APC
T1 sequence (Q9UHX3 24-823): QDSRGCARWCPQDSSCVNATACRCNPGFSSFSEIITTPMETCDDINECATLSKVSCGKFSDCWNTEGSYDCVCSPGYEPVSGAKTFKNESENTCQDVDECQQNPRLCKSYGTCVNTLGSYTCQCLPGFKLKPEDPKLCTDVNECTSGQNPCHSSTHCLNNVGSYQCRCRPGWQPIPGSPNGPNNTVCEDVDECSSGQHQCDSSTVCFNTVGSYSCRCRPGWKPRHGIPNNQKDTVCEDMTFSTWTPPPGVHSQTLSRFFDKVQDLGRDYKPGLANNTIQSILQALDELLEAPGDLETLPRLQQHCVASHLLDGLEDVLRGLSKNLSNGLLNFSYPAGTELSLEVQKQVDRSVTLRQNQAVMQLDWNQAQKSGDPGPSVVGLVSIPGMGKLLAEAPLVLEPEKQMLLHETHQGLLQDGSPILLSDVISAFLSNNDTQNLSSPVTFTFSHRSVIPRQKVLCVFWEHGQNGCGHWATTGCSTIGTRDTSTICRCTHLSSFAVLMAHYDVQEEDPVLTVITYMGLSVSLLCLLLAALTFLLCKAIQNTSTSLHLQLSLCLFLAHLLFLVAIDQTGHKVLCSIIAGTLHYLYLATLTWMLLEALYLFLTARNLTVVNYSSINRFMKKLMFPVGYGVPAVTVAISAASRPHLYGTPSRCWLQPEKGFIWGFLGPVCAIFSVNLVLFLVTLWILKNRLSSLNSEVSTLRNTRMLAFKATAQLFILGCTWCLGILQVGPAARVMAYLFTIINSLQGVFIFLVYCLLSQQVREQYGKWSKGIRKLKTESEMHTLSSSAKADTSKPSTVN


Key:
EMR2 = target: T1, EMR2; experiment: Blocking EMR2 ligand binding with soluble chondroitin sulfate in tolerogenic APC / lymphocyte co-culture; type: cell-based
Procedure: Monocytes were cultured as outlined above. Soluble chondroitin sulfate from shark cartilage (Sigma-Aldrich, St. Louis, Mo.) was used to bind to EMR and block signaling at a concentration of 1.5 mg/mL. CD25 and FoxP3 expression as well as intracellular cytokine functionality was tested.
To mediate cell interactions, EMR2 binds to chondroitin sulfate GAGs on the opposing cell. To block EMR2 signaling and the induction of T regulatory cells, we added soluble chondroitin sulfate to the cell culture. Saturating the culture with soluble chondroitin sulfate competitively binds up available EMR2 molecules and subsequently block signaling from the APC to the lymphocytes.
We treated APC with soluble chondroitin sulfate (1.5 mg/mL) in the same conditions listed above. By using a dose curve, we found 1.5 mg/mL was the ideal concentration for saturating EMR2 receptors. Post co-culture with lymphocytes, we repeated surface and intracellular staining of lymphocytes to check for differences in FoxP3+ cells (FIG. 9).

human APCs = experiment: Surface markers on human tolerogenic APC by flow cytometry; type: cell-based
Procedure: Isolated cells were plated on sterile petri dishes (BD Falcon, Franklin Lakes, N.J.) in serum-free culture medium, RPMI-1640 supplemented with Glutamax (Invitrogen, Carlsbad, Calif.), 1 mM sodium pyruvate, 0.1 mM non-essential amino acids, 100 U/mL Penicillin/Streptomycin, 10 mM HEPES (Invitrogen, Carlsbad, Calif.), Insulin/Transferrin/Selenium (ITS) (Invitrogen, Carlsbad, Calif.), and 0.1% BSA (Sigma-Aldrich, St. Louis, Mo.). Cells were cultured with or without 1 ng/mL porcine TGFβ2 (R&D Systems, Minneapolis, Minn.) for at least six hours. Cells were then pulsed with or without tetanus toxoid (TT) antigen (List Biological Laboratories, Campbell, Calif.) in serum-free media and incubated overnight in 37° C., 5% CO2.
APC were analyzed by flow cytometry to confirm the expression of myeloid and tolerogenic markers. CD14 (constitutive on monocyte-derived cells), Immunoglobulin-like transcript 3 (ILT3, cell surface immunoglobulin that co-ligates to APC stimulatory receptors to downregulate activation signals (Cella et al., 1997)), Programmed cell death 1 ligand 1 (PD-L1, well-known immunosuppressive ligand), and EMR2 were measured. Monoclonal antibodies to ILT3 and PD-L1 were purchased from eBioscience (San Diego, Calif.) and the monoclonal antibody to EMR2 was purchased from R&D Systems (Minneapolis, Minn.).

[1] = both TGFβ2 (1 ng/mL) and antigen (TT) compared to antigen or TGFβ2 alone

Molecule	CD25+ FoxP3+ cell populations (Treg production) (EMR2; 1.5 mg/mL soluble chondroitin sulfate, APC treated with antigen and TGFβ, CD4+ gated lymphocytes post co-culture)	ideal concentration for saturating EMR2 receptors (EMR2; dose curve, APC culture) [mg/mL]	EMR2 expression on APC (human APCs; TGFβ2 (1 ng/mL) and antigen (TT))	ILT3 expression on APC (human APCs; [1])	PD-L1 expression on APC (human APCs; [1])
chondroitin sulfate [soluble chondroitin sulfate]	no increase; also recorded: successfully blocks Treg production	1.5			
TGFβ2: porcine TGFβ2 (R&D Systems), aqueous humor immunosuppressive factor used to generate tolerogenic APC (protein, UniProt P09858 303-435, looked up) Transforming growth factor …: ALDAAYCFRNVQDNCCLRPLYIDFKRDLGWKWIHEPKGYNANFCAGACPYLWSSDTQHSRVLSLYNTINPEASASPCCVSQDLEPLTILYYIGKTPKIEQLSNMIVKSCKCSKTKLAAFARLYHSHSNLGSET			also upregulated	significantly (p≦0.05) upregulated	significantly (p≦0.05) upregulated
